From publication PMC11191739, “Structural Flexibility and Disassembly Kinetics of Single Ferritin Molecules Using Optical Nanotweezers” (ACS Nano, 2024)

Target: the molecule itself
Assay: mass photometry; 50 nM ferritin at pH 2, measured at 1, 3 and 60 min, TwoMP mass photometer

B1: holo-ferritin (derived from equine spleen, F4503) (natural protein)
chain 1: MSSQIRQNYSTEVEAAVNRLVNLYLRASYTYLSLGFYFDRDDVALEGVCHFFRELAEEKREGAERLLKMQNQRGGRALFQDLQKPSQDEWGTTLDAMKAAIVLEKSLNQALLDLHALGSAQADPHLCDFLESHFLDEEVKLIKKMGDHLTNIQRLVGSQAGLGEYLFERLTLKHD
chain 2: MTTAFPSQVRQNYHQDSEAAINRQINLELHASYVYLSMSFYFDRDDVALKNFAKYFLHQSHEEREHAEKLMKLQNQRGGRIFLQDIKKPDQDDWENGLKAMECALHLEKNVNESLLELHKLATDKNDPHLCDFLETHYLNEQVKAIKELGDHVTNLRRMGAPESGMAEYLFDKHTLGECDES
notes: ferritin light (L) chain, equine spleen; ferritin heavy (H) chain, equine spleen; It carries a ferrihydrite iron core; Rows of m1 with itself describe the self-association of the subunits; also called equine spleen ferritin; source: bought: Sigma-Aldrich (F4503), derived from equine spleen
B1 was tested, and the “stoichiometry N” value was 18.
